Measured values from patent US20150098924A1 (TOPOTARGET SWITZERLAND, published 2015).

T1: Fas receptor (human, UniProt P25445 26-335)
T1 sequence (looked up): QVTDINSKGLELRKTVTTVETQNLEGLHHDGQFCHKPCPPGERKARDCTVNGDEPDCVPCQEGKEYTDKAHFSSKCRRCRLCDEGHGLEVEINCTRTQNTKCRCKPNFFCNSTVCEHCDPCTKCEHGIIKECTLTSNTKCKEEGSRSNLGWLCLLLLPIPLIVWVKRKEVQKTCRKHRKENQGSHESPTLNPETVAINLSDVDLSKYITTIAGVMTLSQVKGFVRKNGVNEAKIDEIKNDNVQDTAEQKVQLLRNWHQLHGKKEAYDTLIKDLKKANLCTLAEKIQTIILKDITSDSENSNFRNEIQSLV

B1: MegaFasL (fusion polypeptide m or hACRP30:hFasL) (ligand)
chain: QLFHLQKELAELRESTSQMHTASSLEKQIGHPSPPPEKKELRKVAHLTGKSNSRSMPLEWEDTYGIVLLSGVKYKKGGLVINETGLYFVYSKVYFRGQSCNNLPLSHKVYMRNSKYPQDLVMMEGKMMSYCTTGQMWARSSYLGAVFNLTSADHLYVNVSELSLVNFEESQTFFGLYKL

Molecular target: T1, Fas receptor
Test: cell-based or functional assay

Row | Molecule | IC50 (ng/ml), PESMTS survival assay, ARH-77 cells [ng/mL] | IC50 (ng/ml), PESMTS survival assay, DOHH2 cells [ng/mL] | IC50 (ng/ml), PESMTS survival assay, HL60 (AML-M3) cells [ng/mL] | IC50 (ng/ml), PESMTS survival assay, Jurkat cells [ng/mL] | IC50 (ng/ml), PESMTS survival assay, K562 cells [ng/mL] | IC50 (ng/ml), PESMTS survival assay, NB4 (AML-M3) cells [ng/mL] | IC50 (ng/ml), PESMTS survival assay, Namalwa (ALL-L3) cells [ng/mL] | IC50 (ng/ml), PESMTS survival assay, RPMI-8226 cells [ng/mL] | IC50 (ng/ml), PESMTS survival assay, Raji (ALL-L3) cells [ng/mL] | IC50 (ng/ml), PESMTS survival assay, SC-1 cells [ng/mL] | IC50 (ng/ml), PESMTS survival assay, U266 cells [ng/mL] | IC50 (ng/ml), PESMTS survival assay, OPM2 cells [ng/mL]
1 | CH11 (antibody) | > 10000 | > 10000 | > 10000 | 6.58 | > 10000 | > 10000 | > 10000 | > 10000 | 15.8 | > 10000 | > 10000 | –
2 | B1 | 10.4 | 1.17 | 213 | 0.06 | > 10000 | 16 | 57 | 3.57 | 5.6 | > 10000 | 6.2 | 2.19
